Target: human CD38 extracellular domain (hsCD38 ECD) used for crystallization (Homo sapiens, stabilised)
Assay: crystal structure

Binder | binding result
anti-CD38 B6-D9 Fab (Fab, V domains shown) VH: QVQLVQSGAEVKKPGSSVKVSCKASGGFFSHYIINWVRQAPGQGLEWMGRVIPVIDDAYYAQKFQGRVTITADESTSTAYMELSSLRSEDTAVYYCARSRGYYGSFYFDIWGQGTLVTVSS VL: not shown | binds
anti-CD38 E2-RecA Fab (Fab, V domains shown) VH: QVQLVQSGAEVKKPGSSVKVSCKASGLPDATYAIGWVRQAPGQGLEWMGRIIPRLDAEHYAQKFQGRVTITADESTSTAYMELSSLRSEDTAVYYCARGLGYYLYSSYYFDIWGQGTLVTVSS VL: not shown | binds

Source: publication PMC11784651 (mAbs, 2025)
